Literature values in article PMC10215765.

Target: Band 3 cytoplasmic N-terminal domain (Homo sapiens) (UniProt P02730)
Sequence of UniProt P02730 (P02730 1-379): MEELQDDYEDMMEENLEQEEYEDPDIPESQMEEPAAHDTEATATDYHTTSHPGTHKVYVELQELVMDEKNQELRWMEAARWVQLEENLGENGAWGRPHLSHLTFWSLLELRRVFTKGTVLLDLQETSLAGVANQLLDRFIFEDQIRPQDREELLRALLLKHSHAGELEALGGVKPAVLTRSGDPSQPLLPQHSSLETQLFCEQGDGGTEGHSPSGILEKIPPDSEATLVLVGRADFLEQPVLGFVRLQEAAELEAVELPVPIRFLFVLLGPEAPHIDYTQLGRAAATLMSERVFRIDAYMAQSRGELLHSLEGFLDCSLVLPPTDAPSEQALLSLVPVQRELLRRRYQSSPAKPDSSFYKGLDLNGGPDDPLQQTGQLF

Substance: Peroxiredoxin 2 (from UniProt P32119)
- Kd: 0.034 µM
